Assay results as given in the supplement of paper PMC10126150.
± gives the standard deviation of the averaged measurements.

Tested on: ATP
Experiment: switch fluorescence ratio, 500 uM ATP over buffer (Cy3 cluster intensity, sum of 5 cycles each) (fold (ratio)); higher = stronger signal-on switching upon ATP binding; sequences stand for … in TCGTCGGCAGCGTCAGATGTGTATAAGAGACAGTTTTTTTTTTTTTTTTTTTTTTTTT…TC
Conditions: aptamer strand: ATP DNA aptamer (quencher-CACCTGGGGGAGTATTGCGGAGGAAGG + anchor), 100 nM annealed; ATP concentration: 500 uM
Method in brief: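 For every switch-domain sequence, the fluorescence ratio is the mean of per-cluster values, each being summed target-cycle Cy3 intensity over summed buffer-cycle Cy3 intensity. Clusters outside 100-1000 RFU were excluded. On a modified Illumina MiSeq flow-cell, the Cy3-labelled switching-strand clusters were annealed to 100 nM quencher-labelled ATP aptamer, imaged in selection buffer and then after 15 min with 500 uM ATP at 22 °C. Five such cycles were run, with NaOH stripping and re-annealing between them.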
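Further: ATP exposure 15 min at 22 °C before imaging.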

Sequence | switch fluorescence ratio
CATGAGAAGA | 0.999 ± 0.029
CATGAGACCG | 1.03 ± 0.016
CATGAGGAGT | 1.01 ± 0.0022
CATGATGAGC | 0.9668 ± 0.0079
CATGATTATG | 0.972 ± 0.012
CATGATTTGG | 0.982 ± 0.028
CATGCAAATA | 1.07 ± 0.034
CATGCATTTT | 1.09 ± 0.079
CATGCGAATA | 1.1 ± 0.033
CATGCGCGGA | 1.147 ± 0.0013
CATGCGCTTC | 2.39 ± 0.12
CATGCTGGGT | 1.0358 ± 0.001
CATGCTTGGG | 0.999 ± 0.012
CATGCTTTTG | 1.013 ± 0.0021
CATGGAACCT | 1.92 ± 0.11
CATGGATAGC | 0.963 ± 0.012
CATGGATGGC | 1.06 ± 0.03
CATGGGCTGG | 0.9965 ± 0.001
CATGGGGGCT | 0.964 ± 0.024
CATGGGGGTT | 0.991 ± 0.025
CATGGGGTGC | 1.04 ± 0.024
CATGGTATGT | 1.01 ± 0.038
CATGGTGAGC | 0.956 ± 0.041

Sequence | switch fluorescence ratio
CATGTAAGGG | 1.003 ± 0.0053
CATGTACGTG | 1.0359 ± 9.4e-05
CATGTAGAGG | 0.976 ± 0.033
CATGTATGTT | 1.01 ± 0.012
CATGTATTGA | 0.964 ± 0.024
CATGTCTCTC | 1.02 ± 0.032
CATGTTACGG | 1.055 ± 0.0065
CATGTTGTAT | 0.98166 ± 0.00075
CATTAAGCTG | 1 ± 0.12
CATTAATTGT | 1.025 ± 0.0034
CATTACAGGG | 1.01 ± 0.023
CATTACCGAG | 1.049 ± 0.0037
CATTAGAATC | 0.997 ± 0.028
CATTAGGTCT | 0.981 ± 0.038
CATTATAGGC | 1.004 ± 0.002
CATTATCATT | 0.97 ± 0.018
CATTATTATT | 0.9975 ± 0.0058
CATTCCGTTC | 1.42 ± 0.017
CATTCGAATA | 1.08 ± 0.037
CATTCGTCGA | 1.2 ± 0.04
CATTCGTTGA | 1.05 ± 0.08
CATTCGTTTG | 0.96 ± 0.0097
CATTCTGATC | 1 ± 0.056

Sequence | switch fluorescence ratio
CATTGAATGG | 1 ± 0.015
CATTGATGAA | 0.988 ± 0.06
CATTGTAAGT | 1 ± 0.025
CATTTAGACG | 1.01 ± 0.11
CATTTATTTG | 1.01 ± 0.014
CATTTATTTT | 1.01 ± 0.044
CATTTCGGCG | 0.999 ± 0.044
CATTTCGTAA | 1.18 ± 0.02
CATTTCTTG | 0.985 ± 0.029
CATTTGAGCC | 0.973 ± 0.013
CATTTGGTCC | 1.008 ± 0.0012
CATTTGTGGC | 0.961 ± 0.058
CATTTGTTTT | 1.02 ± 0.021
CATTTTAGAG | 0.98256 ± 0.00032
CATTTTAGTG | 1 ± 0.0021
CATTTTCTAG | 1.03 ± 0.044
CATTTTGTGG | 0.987 ± 0.012
CATTTTTAAC | 0.977 ± 0.014
CATTTTTGAT | 1.01 ± 0.02
CATTTTTGTT | 0.979 ± 0.031
CATTTTTTT | 0.99009 ± 0.00046
CCAAAAAGTG | 1.03 ± 0.031
CCAAAACAGC | 1.028 ± 0.0022

Sequence | switch fluorescence ratio
CCAAAAGGCA | 1.0416 ± 0.00044
CCAAAGATTG | 0.993 ± 0.064
CCAAAGGGAC | 1.089 ± 0.0061
CCAAATGGTG | 1.16 ± 0.021
CCAACAGGGA | 1.112 ± 0.0014
CCAACCAAGG | 1.16 ± 0.056
CCAACGGGCA | 1.08 ± 0.031
CCAAGCACTT | 1.45 ± 0.14
CCAAGCTTGT | 1 ± 0.041
CCAAGGCGAT | 2.33 ± 1.8
CCAAGGCTTT | 1.03 ± 0.026
CCAAGGGGCG | 0.987 ± 0.0077
CCAAGGGTAT | 0.9873 ± 0.0019
CCAAGTCCTG | 0.97 ± 0.092
CCAATGTACT | 1.36 ± 0.05
CCAATGTCTC | 1.08 ± 0.013
CCAATTTTGG | 0.977 ± 0.013
CCACAAGGGG | 1.02 ± 0.019
CCACACGAGA | 1.18 ± 0.066
CCACACTGAT | 1.025 ± 0.0025
CCACATTGGA | 1.001 ± 0.01
CCACGAGATA | 1.115 ± 0.0033
CCACTTATGC | 1.13 ± 0.089

Sequence | switch fluorescence ratio
CCAGAATTAA | 0.976 ± 0.011
CCAGACGTTT | 1.037 ± 0.0073
CCAGCCCGGG | 1.008 ± 0.0051
CCAGCCGGGG | 1.06 ± 0.075
CCAGCCTAGT | 0.98408 ± 0.0008
CCAGCTTCTG | 1 ± 0.065
CCAGGAAGGT | 1.0204 ± 0.00069
CCAGGAGGAG | 1 ± 0.027
CCAGGCTATT | 1.04 ± 0.026
CCAGGGAGGT | 1 ± 0.034
CCAGGGGTGC | 1.48 ± 0.05
CCAGGGTATA | 1.03 ± 0.032
CCAGGGTGGG | 1.03 ± 0.12
CCAGGGTTTT | 1.06 ± 0.1
CCAGGTGTCT | 2.16 ± 0.26
CCAGTAGAGC | 1.01 ± 0.034
CCAGTCGTCT | 1.02 ± 0.026
CCAGTGGCGA | 1.16 ± 0.039
CCAGTGGTTG | 0.9817 ± 0.0056
CCAGTGTAGA | 1.01 ± 0.0052
CCAGTGTGGT | 1.07 ± 0.074
CCAGTGTTAG | 1.03 ± 0.013
CCATAAAGGG | 1.07 ± 0.098

Sequence | switch fluorescence ratio
CCATAGGGGA | 1.0339 ± 0.00023
CCATATCGAC | 1.05 ± 0.05
CCATATTTGG | 1.033 ± 0.0063
CCATCAAGTG | 1.108 ± 0.0049
CCATCGCCCT | 1.17 ± 0.061
CCATCGCCGG | 1 ± 0.081
CCATCGGACA | 1.016 ± 0.0064
CCATCGTAAC | 2.28 ± 0.37
CCATGAGTGT | 0.997 ± 0.032
CCATGATGGT | 1.014 ± 0.0084
CCATGATTTG | 0.9922 ± 0.0042
CCATGCTTGT | 1.03 ± 0.035
CCATGGGGTG | 1.25 ± 0.037
CCATTAAGTC | 1.02 ± 0.045
CCATTGGGTT | 1.02 ± 0.031
CCATTTACGT | 1.04 ± 0.025
CCATTTTATT | 0.988 ± 0.031
CCATTTTCAT | 0.99 ± 0.041
CCATTTTTTG | 0.993 ± 0.028
CCCAATCGGT | 1.05 ± 0.027
CCCAATGATC | 1.52 ± 0.043
CCCAATTATT | 1.016 ± 0.0048
CCCACTGGGA | 1.32 ± 0.39

Sequence | switch fluorescence ratio
CCCAGCAGGT | 1.9 ± 0.18
CCCAGGACGC | 1.397 ± 0.0036
CCCAGGTTAG | 2.9 ± 0.2
CCCAGTATGG | 1.001 ± 0.0082
CCCATTGGGG | 1.03 ± 0.011
CCCATTGTAA | 1.04 ± 0.025
CCCCCGGGGG | 1.91 ± 0.15
CCCCCGTTCC | 1.72 ± 0.2
CCCCGACTTT | 1.07 ± 0.018
CCCCGTAGTC | 4.6 ± 0.3
CCCCGTGTAT | 2.48 ± 0.046
CCCCGTTTCG | 1.08 ± 0.046
CCCCTGGAAT | 1.08 ± 0.03
CCCCTTAGCG | 1.09 ± 0.0067
CCCCTTGTGA | 1.72 ± 0.04
CCCGAAGGTA | 1.01 ± 0.024
CCCGAATCCT | 1.06 ± 0.034
CCCGATGAGC | 1.05 ± 0.025
CCCGCTAAGG | 1.19 ± 0.028
